Columns and labels:
human AML cells = experiment: αCD70/decitabine treatment of AML patient-derived xenografts in NSG mice; assay type: in vivo; settings: αCD70 10 mg/kg, decitabine 1.5 mg/kg/d, 5 days
Method: FIGS. 1A-1I αCD70/decitabine combination therapy eradicates human CD34^+CD38^- AML stem/progenitor cells in murine xenografts. 5×10^6 FACS-purified […] cells from BM of newly diagnosed AML patients (patient […]) were injected intravenously into the tail vein of sub-lethally irradiated NSG mice. After engraftment (day 32 (P10) and day 97 (P25) after transplantation), mice were randomized and subjected to treatment with control mAb and 10 mg/kg αCD70 mAb (41D12-D) intraperitoneally (total of 3 injections) or decitabine and (1.5 mg/kg/day) for five consecutive days alone or in combination. One day after the last treatment, animals were sacrificed and blood, spleen and BM were analyzed. (FIG. 1A) Experimental setup. (FIG. 1B) CD70 expression on CD34^+CD38^- AML stem/progenitor cells. Isotype is depicted in grey; CD70 staining in black (P10) and blue (P25). […] (FIG. 1G) Representative FACS plots and (FIG. 1H) quantification indicating the frequency of CD38^- AML cells within […]^loin^-CD90^-CD34+ AML stem/progenitor cell population. […] 32 days after engraftment (engraftment in PB: 14.45+/-0.95%), NSG mice were randomized to treatment with vehicle (Veh), αCD70 mAb (αCD70, ARGX-110, 10 mg/kg), decitabine (D, 1.5 mg/kg/d) or the combination (αCD70/D) for 5 days and bone marrow, spleen and blood were analyzed.

[1] = Phase I/II trial: peripheral blood counts; assay type: in vivo, human
Excerpt: By C2D17, the percentage of blasts in peripheral blood was 0.8% by flow cytometry and 0% by cell morphology.
Patient 1001003 is a person with AML with myelodysplasia-related changes by WHO classification (AML-M2 by FAB classification) and 24% bone marrow blasts. […] Blast percentage at C1D1 was stable.

[2] = Phase I/II trial: adverse events and toxicity
Method: Subjects received a loading dose of ARGX-110 on Day −14, followed by administration of ARGX-110 in combination with standard doses of AZA. Doses of ARGX-110 were administered intravenously every 2 weeks (loading dose at Day −14 and further doses on Days 3 and 17) in combination with standard doses of AZA to determine the dose limiting toxicity (see FIG. 4). The first patient of each cohort was monitored until day 7 before a second patient was included. […] The ARGX-110 dose level in the first cohort in Phase I was 1 mg/kg body weight.
All subjects in the study received a single loading dose of ARGX-110 on Day −14, at the same dose level as the bi-weekly dose. Subjects in Phase I of the study received one of the following treatments: • Cohort 1: 1 mg/kg body weight IV on Days 3 and 17 of a 28-day cycle • Cohort 2: 3 mg/kg body weight IV on Days 3 and 17 of a 28-day cycle • Cohort 3: 10 mg/kg body weight IV on Days 3 and 17 of a 28-day cycle • Cohort 4: 20 mg/kg body weight IV on Days 3 and 17 of a 28-day cycle

AML = experiment: Phase I/II trial of ARGX-110 with AZA: clinical response; assay type: in vivo, human; settings: for Time to best response: cycle/day
Excerpt: The study included a screening phase (between Day −35 and Day −14), a loading dose of ARGX-110 (Day −14) and an open-label treatment phase during which subjects visited the study center for administration of the study drug (Day −14 until disease progression), and end-of-treatment (EOT) evaluations performed within 7 days after the last ARGX-110 treatment. Additional follow-up evaluations were scheduled at 30 and 60 days (±7 days) after the EOT date. The 60-days follow-up visit was also the end-of-study (EOS) visit.
Clinical response to treatment was categorised according Table 3: […]

[3] = patient 1001002, 1 mg/kg with AZA, C3D17
[4] = patient 1001003, with AZA, C2D1
[5] = patients treated for sufficient time to assess response

B1: ARGX-110: IgG1 anti-CD70 antibody with defucosylated Fc region; VH SEQ ID NO: 4, VL SEQ ID NO: 8 (antibody, V domains shown)
VH: EVQLVESGGGLVQPGGSLRLSCAASGFTFSVYYMNWVRQAPGKGLEWVSDINNEGGTTYYADSVKGRFTISRDNSKNSLYLQMNSLRAEDTAVYYCARDAGYSNHVPIFDSWGQGTLVTVSS
VL: QAVVTQEPSLTVSPGGTVTLTCGLKSGSVTSDNFPTWYQQTPGQAPRLLIYNTNTRHSGVPDRFSGSILGNKAALTITGAQADDEAEYFCALFISNPSVEFGGGTQLTVLG
modifications: IgG1, defucosylated Fc; Custom antibody fragment
- number of CD34+CD38− and CD34+CD45− cells (LSCs) (human AML cells): reduced both the number of CD34+CD38− cells and of CD34+CD45− cells
- total engraftment in the bone marrow, spleen and blood (human AML cells): reduced total engraftment
- Hb [1, 3]: 10.2 g/dL
- absolute neutrophil count (ANC) [1, 3]: 0.97 G/L
- platelets [1, 3]: 128 G/L
- ANC [1, 4]: 0.38 G/L
- Hb [1, 4]: 9.2 g/dL
- platelets [1, 4]: 98 G/L
- Anaemia, Grade 3-5 adverse events: (patients) ([2]; Cohort 1 (1 mg/kg), with AZA): 1
- Anaemia, Grade 3-5 adverse events: Events ([2]; Cohort 1 (1 mg/kg), with AZA): 4
- Febrile Neutropenia, Grade 3-5 adverse events: (patients) ([2]; Cohort 1 (1 mg/kg), with AZA): 2 (2)
- Febrile Neutropenia, Grade 3-5 adverse events: Events ([2]; Cohort 1 (1 mg/kg), with AZA): 2 (2)
- Leukopenia, Grade 3-5 adverse events: (patients) ([2]; Cohort 1 (1 mg/kg), with AZA): 1 (1)
- Leukopenia, Grade 3-5 adverse events: Events ([2]; Cohort 1 (1 mg/kg), with AZA): 1 (1)
- Neutropenia, Grade 3-5 adverse events: (patients) ([2]; Cohort 1 (1 mg/kg), with AZA): 1
- Neutropenia, Grade 3-5 adverse events: Events ([2]; Cohort 1 (1 mg/kg), with AZA): 2
- Pleuropericarditis, Grade 3-5 adverse events: (patients) ([2]; Cohort 1 (1 mg/kg), with AZA): 1 (1)
- Pleuropericarditis, Grade 3-5 adverse events: Events ([2]; Cohort 1 (1 mg/kg), with AZA): 1 (1)
- Thrombocytopenia, Grade 3-5 adverse events: (patients) ([2]; Cohort 1 (1 mg/kg), with AZA): 2
- Thrombocytopenia, Grade 3-5 adverse events: Events ([2]; Cohort 1 (1 mg/kg), with AZA): 8
- Anaemia, Grade 3-5 adverse events: (patients) ([2]; Cohort 2 (3 mg/kg), with AZA): 3
- Anaemia, Grade 3-5 adverse events: Events ([2]; Cohort 2 (3 mg/kg), with AZA): 10
- Constipation, Grade 3-5 adverse events: (patients) ([2]; Cohort 2 (3 mg/kg), with AZA): 1 (1)
- Constipation, Grade 3-5 adverse events: Events ([2]; Cohort 2 (3 mg/kg), with AZA): 1 (1)
- Fever, Grade 3-5 adverse events: (patients) ([2]; Cohort 2 (3 mg/kg), with AZA): 1 (1)
- Fever, Grade 3-5 adverse events: Events ([2]; Cohort 2 (3 mg/kg), with AZA): 1 (1)
- Hypertension, Grade 3-5 adverse events: (patients) ([2]; Cohort 2 (3 mg/kg), with AZA): 1
- Hypertension, Grade 3-5 adverse events: Events ([2]; Cohort 2 (3 mg/kg), with AZA): 2
- Hypokalaemia, Grade 3-5 adverse events: (patients) ([2]; Cohort 2 (3 mg/kg), with AZA): 1 (1)
- Hypokalaemia, Grade 3-5 adverse events: Events ([2]; Cohort 2 (3 mg/kg), with AZA): 1 (1)
- Leukopenia, Grade 3-5 adverse events: (patients) ([2]; Cohort 2 (3 mg/kg), with AZA): 1 (1)
- Leukopenia, Grade 3-5 adverse events: Events ([2]; Cohort 2 (3 mg/kg), with AZA): 1 (1)
- Neutropenia, Grade 3-5 adverse events: (patients) ([2]; Cohort 2 (3 mg/kg), with AZA): 1
- Neutropenia, Grade 3-5 adverse events: Events ([2]; Cohort 2 (3 mg/kg), with AZA): 4
- Proctitis, Grade 3-5 adverse events: (patients) ([2]; Cohort 2 (3 mg/kg), with AZA): 1
- Proctitis, Grade 3-5 adverse events: Events ([2]; Cohort 2 (3 mg/kg), with AZA): 2
- Thrombocytopenia, Grade 3-5 adverse events: (patients) ([2]; Cohort 2 (3 mg/kg), with AZA): 3 (3)
- Thrombocytopenia, Grade 3-5 adverse events: Events ([2]; Cohort 2 (3 mg/kg), with AZA): 3 (3)
- Disease Progression, Grade 3-5 adverse events: (patients) ([2]; Cohort 3 (10 mg/kg), with AZA): 1 (1)
- Disease Progression, Grade 3-5 adverse events: Events ([2]; Cohort 3 (10 mg/kg), with AZA): 1 (1)
- Febrile Neutropenia, Grade 3-5 adverse events: (patients) ([2]; Cohort 3 (10 mg/kg), with AZA): 1 (1)
- Febrile Neutropenia, Grade 3-5 adverse events: Events ([2]; Cohort 3 (10 mg/kg), with AZA): 1 (1)
- Thrombocytopenia, Grade 3-5 adverse events: (patients) ([2]; Cohort 3 (10 mg/kg), with AZA): 1
- Thrombocytopenia, Grade 3-5 adverse events: Events ([2]; Cohort 3 (10 mg/kg), with AZA): 2
- Anaemia, Grade 3-5 adverse events: (patients) ([2]; Cohort 4 (20 mg/kg), with AZA): 1
- Anaemia, Grade 3-5 adverse events: Events ([2]; Cohort 4 (20 mg/kg), with AZA): 2
- Febrile Neutropenia, Grade 3-5 adverse events: (patients) ([2]; Cohort 4 (20 mg/kg), with AZA): 1 (1)
- Febrile Neutropenia, Grade 3-5 adverse events: Events ([2]; Cohort 4 (20 mg/kg), with AZA): 1 (1)
- Thrombocytopenia, Grade 3-5 adverse events: (patients) ([2]; Cohort 4 (20 mg/kg), with AZA): 2 (2)
- Thrombocytopenia, Grade 3-5 adverse events: Events ([2]; Cohort 4 (20 mg/kg), with AZA): 2 (2)
- Anaemia, Grade 3-5 adverse events: Total ([2]; all cohorts): 16
- Constipation, Grade 3-5 adverse events: Total ([2]; all cohorts): 1
- Disease Progression, Grade 3-5 adverse events: Total ([2]; all cohorts): 1
- Febrile Neutropenia, Grade 3-5 adverse events: Total ([2]; all cohorts): 4
- Fever, Grade 3-5 adverse events: Total ([2]; all cohorts): 1
- Hypertension, Grade 3-5 adverse events: Total ([2]; all cohorts): 2
- Hypokalaemia, Grade 3-5 adverse events: Total ([2]; all cohorts): 1
- Leukopenia, Grade 3-5 adverse events: Total ([2]; all cohorts): 1
- Neutropenia, Grade 3-5 adverse events: Total ([2]; all cohorts): 6
- Pleuropericarditis, Grade 3-5 adverse events: Total ([2]; all cohorts): 1
- Proctitis, Grade 3-5 adverse events: Total ([2]; all cohorts): 2
- Thrombocytopenia, Grade 3-5 adverse events: Total ([2]; all cohorts): 15
- toxicity ([2]; monotherapy or in combination with aza): did not result in any observed increase in toxicity
- Time to best response (AML; Cohort 1 (1 mg/kg) with AZA, one line per patient, 1 mg/kg): EOT
- Time to best response (AML; Cohort 2 (3 mg/kg) with AZA, one line per patient, 3 mg/kg): EOT
- Best response to date (AML; Cohort 4 (20 mg/kg) with AZA, one line per patient, 20 mg/kg): No response
- patients in each cohort showing complete remission (AML; each of the 1 mg/kg, 3 mg/kg and 10 mg/kg cohorts): 2 of the 3
- patients responding (response rate) (AML; [5]): more than 90%
- responding patients / assessed patients (AML; [5]): 10/11

Source: patent US20190106498A1, “TREATMENT FOR ACUTE MYELOID LEUKEMIA” (priority 2017, published 2019)
